Key:
Assay in all cases: purified protein
Format in all cases: biochemical, Lathyrus oleraceus
purified protein [1] = substrate: NCCCCCCN; settings: 0.1 mol/L potassium phosphate pH 7.0, 30 °C, O2 co-substrate, excess substrate inhibition above 500 µmol/L
purified protein [2] = substrate: NCCC(O)CN; settings: 0.1 mol/L potassium phosphate pH 7.0, 30 °C, O2 co-substrate
purified protein [3] = substrate: N=C(N)NCCCCN; settings: 0.1 mol/L potassium phosphate pH 7.0, 30 °C, O2 co-substrate
purified protein [4] = substrate: NCCCCCN; settings: 0.1 mol/L potassium phosphate pH 7.0, 30 °C, O2 co-substrate, excess substrate inhibition above 500 µmol/L
purified protein [5] = substrate: NCC1CCNCC1; settings: 0.1 mol/L potassium phosphate pH 7.0, 30 °C, O2 co-substrate
purified protein [6] = substrate: NCCCCN; settings: 0.1 mol/L potassium phosphate pH 7.0, 30 °C, O2 co-substrate

B1: Pea seedling amine oxidase (PSAO); diamine oxidase (DAO) (Lathyrus oleraceus) (protein)
chain: VTPLHVQHPLDPLTKEEFLAVQTIVQNKYPISNNRLAFHYIGLDDPEKDHVLRYETHPTLVSIPRKIFVVAIINSQTHEILINLRIRSIVSDNIHNGYGFPILSVDEQSLAIKLPLKYPPFIDSVKKRGLNLSEIVCSSFTMGWFGEEKNVRTVRLDCFMKESTVNIYVRPITGITIVADLDLMKIVEYHDRDIEAVPTAENTEYQVSKQSPPFGPKQHSLTSHQPQGPGFQINGHSVSWANWKFHIGFDVRAGIVISLASIYDLEKHKSRRVLYKGYISELFVPYQDPTEEFYFKTFFDSGEFGFGLSTVSLIPNRDCPPHAQFIDTYVHSANGTPILLKNAICVFEQYGNIMWRHTENGIPNESIEESRTEVNLIVRTIVTVGNYDNVIDWEFKASGSIKPSIALSGILEIKGTNIKHKDEIKEDLHGKLVSANSIGIYHDHFYIYYLDFDIDGTHNSFEKTSLKTVRIKDGSSKRKSYWTTETQTAKTESDAKITIGLAPAELVVVNPNIKTAVGNEVGYRLIPAIPAHPLLTEDDYPQIRGAFTNYNVWVTAYNRTEKWAGGLYVDHSRGDDTLAVWTKQNREIVNKDIVMWHVVGIHHVPAQEDFPIMPLLSTSFELRPTNFFERNPVLKTLSPRDVAWPGCSN
notes: native enzyme purified to homogeneity from 7-day-old etiolated pea seedlings (roots and cotyledons removed); homodimer, 72 kDa subunit; Cu(II) and topaquinone
Purified protein [1]
  Km: 95 ± 7 µM
  kcat: 13 s⁻¹
  kcat/Km: 137000 M⁻¹ s⁻¹
Purified protein [2]
  Km: 589 ± 33 µM
  kcat: 4.9 s⁻¹
  kcat/Km: 8320 M⁻¹ s⁻¹
Purified protein [3]
  Km: 446 ± 23 µM
  kcat: 8.4 s⁻¹
  kcat/Km: 18800 M⁻¹ s⁻¹
Purified protein [4]
  Km: 148 ± 8 µM
  kcat: 60.9 s⁻¹
  kcat/Km: 411000 M⁻¹ s⁻¹
Purified protein [5]
  Km: 618 ± 24 µM
  kcat: 4.2 s⁻¹
  kcat/Km: 6800 M⁻¹ s⁻¹
Purified protein [6]
  Km: 289 ± 15 µM
  kcat: 47.4 s⁻¹
  kcat/Km: 164000 M⁻¹ s⁻¹
